The target in assay [1] is T1, B-Defensin-3 (Homo sapiens (Human), UniProt P81534 23-67, not fully specified).
T1 construct: also called β-defensin
T1 peptide: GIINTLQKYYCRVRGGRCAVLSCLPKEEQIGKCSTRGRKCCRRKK
The assay can be described thus: SPR (Biacore 8K), antibody passed over immobilized protein. As for the experimental part: (§1) Non-specific binding of the lead molecule to unrelated surfaces is determined by biosensor technology (Biacore 8K). Antibody is passed over SPR surfaces coated with unrelated proteins. […] Lead molecule is tested at the final concentration of 1 μM. Irrelevant surfaces include negatively charged protein (Soy Trypsin Inhibitor), positively charged protein (Lysozyme and β-defensin), hydrophobic (Rh-integrin a4b7), human IgG, sticky protein (Rh-CD19). Proper controls are used in this experiment. Lead is flown over two surfaces, one is a blank and the other has a molecule directly immobilized. The response unit (RU) level is determined by subtracting the blank RU from the test surface RU. The RU of TMCB150 and the parental mAbs are given below in the table. A response unit ≥100 predicts high risks for non-specific binding to charged/hydrophobic/IgG surfaces which would create challenges during manufacturing and translate to poor PK properties. None of the antibodies show non-specific binding to irrelevant surfaces predicting low to no risks for manufacturing and in-vivo behavior.
Background: Surface plasmon resonance follows binding to a sensor surface in real time, without labels.

Assay [2] concerns the target T2, rh-Integrin a4b7 (UniProt P13612 34-977; P26010 20-723).
T2 construct: 'rh-' is not explained
The description is as above. As for the experimental part:
as §1

Assay [3] addresses T3, rh-CD19 (UniProt P15391 20-291, limits assumed).
T3 construct: 'rh-' is not explained
T3 sequence (looked up): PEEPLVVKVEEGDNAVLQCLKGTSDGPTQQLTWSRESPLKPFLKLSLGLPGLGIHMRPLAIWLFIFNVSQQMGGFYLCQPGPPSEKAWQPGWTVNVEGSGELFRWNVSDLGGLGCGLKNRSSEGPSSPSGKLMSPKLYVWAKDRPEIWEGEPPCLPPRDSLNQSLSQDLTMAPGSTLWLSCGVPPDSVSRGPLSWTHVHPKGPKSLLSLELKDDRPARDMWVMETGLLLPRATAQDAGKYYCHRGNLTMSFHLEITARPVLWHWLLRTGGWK
Described as above. As for the experimental part:
as §1

For assay [4], the target named is T4, Soy Trypsin Inhibitor (soy).
T4 construct: also called STI
In words: SPR (Biacore 8K), 1 µM antibody over immobilized protein, blank subtracted. As for the experimental part:
as §1

For assay [5], the target named is T1, B-Defensin-3. Described as above. As for the experimental part:
as §1

Assay [6] concerns the target Human IgG. The assay is described as above. As for the experimental part: as §1
In assay [7] the target is Lysozyme. The description is as above. As for the experimental part:
as §1

Assay [8] deals with T2, rh-Integrin a4b7. Described as above. As for the experimental part:
as §1

Assay [9] has as its target T3, rh-CD19. The assay is described as above. As for the experimental part: as §1

T2 sequence (P13612 34-977, chain 1 of 2): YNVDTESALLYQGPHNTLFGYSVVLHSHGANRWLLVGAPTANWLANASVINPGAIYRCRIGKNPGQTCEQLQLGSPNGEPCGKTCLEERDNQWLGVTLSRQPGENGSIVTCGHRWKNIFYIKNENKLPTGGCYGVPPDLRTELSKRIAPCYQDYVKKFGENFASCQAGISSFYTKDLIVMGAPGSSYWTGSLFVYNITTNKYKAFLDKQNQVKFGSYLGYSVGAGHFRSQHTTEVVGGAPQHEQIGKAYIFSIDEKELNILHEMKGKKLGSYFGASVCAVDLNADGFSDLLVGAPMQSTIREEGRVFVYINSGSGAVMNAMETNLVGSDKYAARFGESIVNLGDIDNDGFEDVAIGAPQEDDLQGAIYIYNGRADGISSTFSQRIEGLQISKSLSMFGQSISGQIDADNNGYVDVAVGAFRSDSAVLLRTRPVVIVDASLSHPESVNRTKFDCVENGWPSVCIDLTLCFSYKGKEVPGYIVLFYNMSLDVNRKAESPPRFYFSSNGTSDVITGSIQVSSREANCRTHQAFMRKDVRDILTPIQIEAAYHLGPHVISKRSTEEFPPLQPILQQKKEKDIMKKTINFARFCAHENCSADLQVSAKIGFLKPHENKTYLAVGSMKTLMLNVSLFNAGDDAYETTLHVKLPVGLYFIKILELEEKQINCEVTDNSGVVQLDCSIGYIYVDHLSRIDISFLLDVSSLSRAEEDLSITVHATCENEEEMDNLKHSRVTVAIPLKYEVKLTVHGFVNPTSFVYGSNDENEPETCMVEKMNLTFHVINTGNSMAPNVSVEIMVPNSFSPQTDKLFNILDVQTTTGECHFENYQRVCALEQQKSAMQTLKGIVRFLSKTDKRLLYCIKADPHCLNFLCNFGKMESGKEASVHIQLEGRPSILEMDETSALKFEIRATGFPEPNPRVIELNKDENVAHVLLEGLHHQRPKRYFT
T2 sequence (P26010 20-723, chain 2 of 2): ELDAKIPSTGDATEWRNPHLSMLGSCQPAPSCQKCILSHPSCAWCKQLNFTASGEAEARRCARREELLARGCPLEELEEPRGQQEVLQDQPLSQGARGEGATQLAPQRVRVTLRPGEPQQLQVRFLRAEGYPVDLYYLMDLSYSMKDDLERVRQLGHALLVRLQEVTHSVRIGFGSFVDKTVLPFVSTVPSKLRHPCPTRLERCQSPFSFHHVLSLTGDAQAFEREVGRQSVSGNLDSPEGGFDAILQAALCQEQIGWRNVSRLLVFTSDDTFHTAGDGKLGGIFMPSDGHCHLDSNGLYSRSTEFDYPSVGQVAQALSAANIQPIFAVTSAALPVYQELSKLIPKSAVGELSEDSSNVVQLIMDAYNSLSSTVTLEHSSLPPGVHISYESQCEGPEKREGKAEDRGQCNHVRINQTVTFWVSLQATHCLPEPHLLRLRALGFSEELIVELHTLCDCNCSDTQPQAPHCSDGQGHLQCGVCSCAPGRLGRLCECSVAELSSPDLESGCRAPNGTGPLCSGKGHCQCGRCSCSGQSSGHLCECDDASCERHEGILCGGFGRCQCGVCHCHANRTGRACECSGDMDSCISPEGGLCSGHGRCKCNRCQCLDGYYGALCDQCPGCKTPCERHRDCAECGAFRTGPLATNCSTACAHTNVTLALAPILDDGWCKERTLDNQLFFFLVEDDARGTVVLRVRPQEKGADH
Lysozyme, sequence (P00698 19-147): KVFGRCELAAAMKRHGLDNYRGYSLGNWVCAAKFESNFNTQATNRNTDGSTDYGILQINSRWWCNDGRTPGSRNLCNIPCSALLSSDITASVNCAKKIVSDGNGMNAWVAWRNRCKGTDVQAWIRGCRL
T4 sequence (P01070 25-205): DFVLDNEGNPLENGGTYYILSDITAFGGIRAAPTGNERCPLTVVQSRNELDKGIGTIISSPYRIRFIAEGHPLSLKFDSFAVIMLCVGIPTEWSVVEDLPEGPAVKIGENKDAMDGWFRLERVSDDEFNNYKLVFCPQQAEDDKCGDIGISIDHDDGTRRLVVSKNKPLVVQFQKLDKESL

B1: TMCB150 (bispecific antibody, human IgG4 S228P, kappa, lambda, F234A L235A)
heavy 1: not shown
light 1: not shown
heavy 2: QVQLQQSGPRLVRPSQTLSLTCAISGDSVFNNNAAWSWIRQSPSRGLEWLGRTYYRSKWLYDYAVSVKSRITVNPDTSRNQFTLQLNSVTPEDTALYYCARGYSSSFDYWGQGTLVTVSSASTKGPSVFPLAPCSRSTSESTAALGCLVKDYFPEPVTVSWNSGALTSGVHTFPAVLQSSGLYSLSSVVTVPSSSLGTKTYTCNVDHKPSNTKVDKRVESKYGPPCPPCPAPEAAGGPSVFLFPPKPKDTLMISRTPEVTCVVVDVSQEDPEVQFNWYVDGVEVHNAKTKPREEQFNSTYRVVSVLTVLHQDWLNGKEYKCKVSNKGLPSSIEKTISKAKGQPREPQVYTLPPSQEEMTKNQVSLTCLVKGFYPSDIAVEWESNGQPENNYKTTPPVLDSDGSFLLYSKLTVDKSRWQEGNVFSCSVMHEALHNHYTQKSLSLSLGK
light 2: QSALTQPASVSGSPGQSITISCTGTSSNIGTYKFVSWYQQHPDKAPKVLLYEVSKRPSGVSSRFSGSKSGNTASLTISGLQAEDQADYHCVSYAGSGTLLFGGGTKLTVLGQPKAAPSVTLFPPSSEELQANKATLVCLISDFYPGAVTVAWKADSSPVKAGVETTTPSKQSNNKYAASSYLSLTPEQWKSHRSYSCQVTHEGSTVEKTVAPTECS
notes: made by Fab arm exchange of the parental IgG4PAA mAbs, so the chains are those of TMEB762 (HC 91, LC 92) and CD3B376 (HC 78, LC 79); also called TMEB762xCD3B376; bispecific anti-TMEFF2/CD3 antibody
As to B1, the binding result in assay [1], in assay [2] and in [3] was “no binding” each time. Besides, the “response unit (RU)” value worked out at 1.6 RU in assay [4]; 6.4 RU in assay [5]; 7.5 RU in assay [6]; 4.2 RU in assay [7]; 0 RU in assay [8]; 3.4 RU in [9].

B2: TMEB762 (antibody, human IgG4 S228P, kappa, F234A L235A, V domains shown)
VH: EVQLLESGGGLVQPGGSLRLSCAASGFTFSSYSMSWVRQAPGKGLEWVSVISGSGGFTDYADSVKGRFTISRDNSKNTLYLQMNSLRAEDTAVYYCARMPLNSPHDYWGQGTLVTVSS
VL: DIQMTQSPSSLSASVGDRVTITCRASQGIRNDLGWYQQKPGKAPKLLIYAASSLQSGVPSRFSGSGSGTDFTLTISSLQPEDFATYYCLQDYNYPLTFGGGTKVEIKR
notes: IgG4PAA; re-engineered variant of TMEB675 (HC R14P, P20L, H81Q; LC A1D, A91P, Kabat); Bivalent TMEFF2 parent of TMCB150; also called anti-TMEFF2 antibody; VH TMEH459
For the molecule B2, the binding result in assay [1], in [2] and in [3] was “no binding” in each case. Further, the “response unit (RU)” value came out at 0 RU in assay [4]; 4.1 RU in assay [5]; 8.4 RU in [6]; 4.6 RU in [7]; 0 RU in assay [8]; 3.3 RU in assay [9].

B3: CD3B376 (antibody, V domains shown)
VH: QVQLQQSGPRLVRPSQTLSLTCAISGDSVFNNNAAWSWIRQSPSRGLEWLGRTYYRSKWLYDYAVSVKSRITVNPDTSRNQFTLQLNSVTPEDTALYYCARGYSSSFDYWGQGTLVTVSS
VL: QSALTQPASVSGSPGQSITISCTGTSSNIGTYKFVSWYQQHPDKAPKVLLYEVSKRPSGVSSRFSGSKSGNTASLTISGLQAEDQADYHCVSYAGSGTLLFGGGTKLTVLG
notes: HC is IgG4 S228P, F234A, L235A, F405L, R409K; also called anti-CD3 antibody; bivalent CD3B376
With B3, the binding result in [1], in [2] and in assay [3] was “no binding” in each case. Further, the “response unit (RU)” value in assay [4] was 19.5 RU; in assay [5], 3.1 RU; in assay [6] it was 0.4 RU; in assay [7] it was 0.2 RU; in [8] it was 0 RU; in assay [9], 0 RU.

Values taken from patent US20190359711A1 (Janssen / Centocor, published 2019).
